The values that follow come from publication PMC12102759 (2025).

The labels stand for the following.
B1: NOTCH4 peptide 1606-1621 (Neurogenic locus notch homolog protein 4), 16-mer library wild type / NSP9 (ORF1ab Nsp9, residues 4141-4253) (parent complex)
chain 1: QGAWLGAPEPWEPLLD
chain 2: NNELSPVALRQMSCAAGTTQTACTDDNALAYYNTTKGGRFVLALLSDLQDLKWARFPKSDGTGTIYTELEPPCRFVTDTPKGPKVKYLYFIKGLNNLNRGMVLGSLAATVRLQ

The assay covers variants of B1. Nature of the assay: bait immobilised on MaxiSorp plates (10 µg), library pre-cleared on GST, 2 h binding at 4 °C, five washes; one round per day, days 1-4; value from days 2 and 3.
Regarding chain 1 QGAWLGAPEPDEPLLD, the screen value was 0.000384 average fractional NGS count over selection days 2 and 3 (reads of this peptide / all reads for the bait, averaged over …. Next, chain 1 QGAWLGAPEPEEPLLD: 0.00215 average fractional NGS count over selection days 2 and 3 (reads of this peptide / all reads for the bait, averaged over …; chain 1 QGAWLGAPEPHEPLLD: 0.00345 average fractional NGS count over selection days 2 and 3 (reads of this peptide / all reads for the bait, averaged over …. The result for chain 1 QGAWLGAPEPMEPLLD reads 0.0273 average fractional NGS count over selection days 2 and 3 (reads of this peptide / all reads for the bait, averaged over …; that for chain 1 QGAWLGAPEPSEPLLD, 0.000466 average fractional NGS count over selection days 2 and 3 (reads of this peptide / all reads for the bait, averaged over …; that for chain 1 QGAWLGAPEPTEPLLD, 0.000139 average fractional NGS count over selection days 2 and 3 (reads of this peptide / all reads for the bait, averaged over …. Regarding chain 1 QGAWLGAPEPLEPLLD, the screen value was 0.0119 average fractional NGS count over selection days 2 and 3 (reads of this peptide / all reads for the bait, averaged over ….

With chain 1 QGAWLGAIEPWEPLLD, the screen value was 0.000952 average fractional NGS count over selection days 2 and 3 (reads of this peptide / all reads for the bait, averaged over …. The result for chain 1 QGAWLGAMEPWEPLLD reads 0.00044 average fractional NGS count over selection days 2 and 3 (reads of this peptide / all reads for the bait, averaged over …; that for chain 1 QGAWLGASEPWEPLLD, 0.00076 average fractional NGS count over selection days 2 and 3 (reads of this peptide / all reads for the bait, averaged over …. In the case of chain 1 QGAWLGAEEPWEPLLD, the screen value is 0.000231 average fractional NGS count over selection days 2 and 3 (reads of this peptide / all reads for the bait, averaged over …. As for chain 1 QGAWLGAFEPWEPLLD, the screen value was 0.000628 average fractional NGS count over selection days 2 and 3 (reads of this peptide / all reads for the bait, averaged over ….

As for chain 1 QGAWLGAPEMWEPLLD, the screen value was 0.0078 average fractional NGS count over selection days 2 and 3 (reads of this peptide / all reads for the bait, averaged over …. The result for chain 1 QGAWLGAPERWEPLLD reads 0.00113 average fractional NGS count over selection days 2 and 3 (reads of this peptide / all reads for the bait, averaged over …; that for chain 1 QGAWLGAPEWWEPLLD, 0.00034 average fractional NGS count over selection days 2 and 3 (reads of this peptide / all reads for the bait, averaged over …; that for chain 1 QGAWLGAPELWEPLLD, 0.00033 average fractional NGS count over selection days 2 and 3 (reads of this peptide / all reads for the bait, averaged over ….

In the case of chain 1 QGAWLGAPEKWEPLLD, the screen value was 0.00223 average fractional NGS count over selection days 2 and 3 (reads of this peptide / all reads for the bait, averaged over ….

For the variant chain 1 QGAWLGAPESWEPLLD, the screen value was 0.000591 average fractional NGS count over selection days 2 and 3 (reads of this peptide / all reads for the bait, averaged over …. The result for chain 1 QGAWLGAPEHWEPLLD reads 0.000471 average fractional NGS count over selection days 2 and 3 (reads of this peptide / all reads for the bait, averaged over …; that for chain 1 QGAWLGAPENWEPLLD, 0.000425 average fractional NGS count over selection days 2 and 3 (reads of this peptide / all reads for the bait, averaged over ….

Regarding chain 1 QGAWLGAPEPWEPMLD, the screen value was 0.00305 average fractional NGS count over selection days 2 and 3 (reads of this peptide / all reads for the bait, averaged over …. Regarding chain 1 QGAWLGAPEPWEPALD, the screen value was 0.00317 average fractional NGS count over selection days 2 and 3 (reads of this peptide / all reads for the bait, averaged over …. Next, chain 1 QGAWLGAPEPWEPTLD: 0.00105 average fractional NGS count over selection days 2 and 3 (reads of this peptide / all reads for the bait, averaged over ….

With chain 1 QGAWLGAPEPWEPYLD, the screen value was 0.00146 average fractional NGS count over selection days 2 and 3 (reads of this peptide / all reads for the bait, averaged over ….

chain 1 QGAWLGAPGPWEPLLD: the screen value was 0.00198 average fractional NGS count over selection days 2 and 3 (reads of this peptide / all reads for the bait, averaged over …. The result for chain 1 QGAWLGAPWPWEPLLD reads 0.00272 average fractional NGS count over selection days 2 and 3 (reads of this peptide / all reads for the bait, averaged over …. Consider chain 1 QGAWLGAPLPWEPLLD, for which the screen value is 0.0321 average fractional NGS count over selection days 2 and 3 (reads of this peptide / all reads for the bait, averaged over …. Turning to chain 1 QGAWLGAPTPWEPLLD, the screen value is 0.00217 average fractional NGS count over selection days 2 and 3 (reads of this peptide / all reads for the bait, averaged over ….

As to chain 1 QGAWLGAPKPWEPLLD, the screen value was 0.000266 average fractional NGS count over selection days 2 and 3 (reads of this peptide / all reads for the bait, averaged over …. Next, chain 1 QGAWLGAPAPWEPLLD: 0.000237 average fractional NGS count over selection days 2 and 3 (reads of this peptide / all reads for the bait, averaged over …; chain 1 QGAWLGAPYPWEPLLD: 0.000233 average fractional NGS count over selection days 2 and 3 (reads of this peptide / all reads for the bait, averaged over …. Next, chain 1 QGAWLGAPIPWEPLLD: 0.00116 average fractional NGS count over selection days 2 and 3 (reads of this peptide / all reads for the bait, averaged over …; chain 1 AGAWLGAPEPWEPLLD: 0.00674 average fractional NGS count over selection days 2 and 3 (reads of this peptide / all reads for the bait, averaged over ….

As for chain 1 IGAWLGAPEPWEPLLD, the screen value is 0.000162 average fractional NGS count over selection days 2 and 3 (reads of this peptide / all reads for the bait, averaged over ….

For the variant chain 1 HGAWLGAPEPWEPLLD, the screen value was 0.000824 average fractional NGS count over selection days 2 and 3 (reads of this peptide / all reads for the bait, averaged over ….

Consider chain 1 EGAWLGAPEPWEPLLD, for which the screen value is 0.00488 average fractional NGS count over selection days 2 and 3 (reads of this peptide / all reads for the bait, averaged over ….

Take chain 1 TGAWLGAPEPWEPLLD: the screen value is 0.000204 average fractional NGS count over selection days 2 and 3 (reads of this peptide / all reads for the bait, averaged over …. Next, chain 1 YGAWLGAPEPWEPLLD: 0.00151 average fractional NGS count over selection days 2 and 3 (reads of this peptide / all reads for the bait, averaged over ….

In the case of chain 1 LGAWLGAPEPWEPLLD, the screen value was 0.000598 average fractional NGS count over selection days 2 and 3 (reads of this peptide / all reads for the bait, averaged over …. On to chain 1 QGAYLGAPEPWEPLLD, for which the screen value is 0.000452 average fractional NGS count over selection days 2 and 3 (reads of this peptide / all reads for the bait, averaged over …. The result for chain 1 QGAWLPAPEPWEPLLD reads 0.00151 average fractional NGS count over selection days 2 and 3 (reads of this peptide / all reads for the bait, averaged over …; that for chain 1 QGAWLAAPEPWEPLLD, 9.6e-05 average fractional NGS count over selection days 2 and 3 (reads of this peptide / all reads for the bait, averaged over …. With chain 1 QGAWLGAPEPWEWLLD, the screen value was 0.000306 average fractional NGS count over selection days 2 and 3 (reads of this peptide / all reads for the bait, averaged over ….

As to chain 1 QGAWLGAPEPWEILLD, the screen value was 0.00354 average fractional NGS count over selection days 2 and 3 (reads of this peptide / all reads for the bait, averaged over ….

With chain 1 QGAWLGAPEPWEELLD, the screen value is 0.000762 average fractional NGS count over selection days 2 and 3 (reads of this peptide / all reads for the bait, averaged over …. Next, chain 1 QGAWLGAPEPWEQLLD: 0.000154 average fractional NGS count over selection days 2 and 3 (reads of this peptide / all reads for the bait, averaged over …; chain 1 QGAWLGAPEPWEHLLD: 0.000211 average fractional NGS count over selection days 2 and 3 (reads of this peptide / all reads for the bait, averaged over ….

chain 1 QGAWLGAPEPWEYLLD: the screen value was 0.000242 average fractional NGS count over selection days 2 and 3 (reads of this peptide / all reads for the bait, averaged over …. The result for chain 1 QGAWLGAPEPWEGLLD reads 0.00615 average fractional NGS count over selection days 2 and 3 (reads of this peptide / all reads for the bait, averaged over …; that for chain 1 QGAWLGAPEPWEKLLD, 0.00839 average fractional NGS count over selection days 2 and 3 (reads of this peptide / all reads for the bait, averaged over …. The result for chain 1 QGAWLGRPEPWEPLLD reads 0.000186 average fractional NGS count over selection days 2 and 3 (reads of this peptide / all reads for the bait, averaged over …; that for chain 1 QGAWLGEPEPWEPLLD, 0.000192 average fractional NGS count over selection days 2 and 3 (reads of this peptide / all reads for the bait, averaged over …. Regarding chain 1 QGAWLGQPEPWEPLLD, the screen value was 0.00107 average fractional NGS count over selection days 2 and 3 (reads of this peptide / all reads for the bait, averaged over ….

Consider chain 1 QGAWLGGPEPWEPLLD, for which the screen value is 0.00198 average fractional NGS count over selection days 2 and 3 (reads of this peptide / all reads for the bait, averaged over …. The result for chain 1 QGAWLGDPEPWEPLLD reads 0.00053 average fractional NGS count over selection days 2 and 3 (reads of this peptide / all reads for the bait, averaged over …; that for chain 1 QGAWLGHPEPWEPLLD, 0.0144 average fractional NGS count over selection days 2 and 3 (reads of this peptide / all reads for the bait, averaged over …. chain 1 QGAWIGAPEPWEPLLD: the screen value was 0.000857 average fractional NGS count over selection days 2 and 3 (reads of this peptide / all reads for the bait, averaged over …. The result for chain 1 QGAWLGAPEPWEPLID reads 0.0135 average fractional NGS count over selection days 2 and 3 (reads of this peptide / all reads for the bait, averaged over …; that for chain 1 QGAWLGAPEPWEPLRD, 0.000322 average fractional NGS count over selection days 2 and 3 (reads of this peptide / all reads for the bait, averaged over ….

On to chain 1 QGAWLGAPEPWEPLDD, for which the screen value is 0.000339 average fractional NGS count over selection days 2 and 3 (reads of this peptide / all reads for the bait, averaged over ….

Regarding chain 1 QGAWLGAPEPWEPLFD, the screen value was 0.000114 average fractional NGS count over selection days 2 and 3 (reads of this peptide / all reads for the bait, averaged over ….

For the variant chain 1 QGAWLGAPEPWEPLPD, the screen value was 0.000417 average fractional NGS count over selection days 2 and 3 (reads of this peptide / all reads for the bait, averaged over ….
